According to patent US20250051478A1 (Y MABS THERAPEUTICS, published 2025):

Experiments:
[1] = molecular target: T1, CD38 (UniProt P28907 43-300, limits assumed); test: SPR; YMS9d diluted to 1 mg/ml from the 10 mg/ml solution
T1 construct: also called cyclic ADP ribose hydrolase

[2] = molecular target: T1, CD38; test: SPR; YMS9d diluted to 1 mg/ml from the 20 mg/ml solution

B1: YMS9d (bispecific antibody)
chain: QVQLQESGPGLVKPSETLSLTCTVSGFSLTSYGVHWVRQPPGKGLEWIGVMWRGGSTDYNAAFKSRVTISKDNSKNQVSLKLSSVTAADTAVYYCAKSMITTGFVMDSWGQGTLVTVSSGGGGSGGGGSGGGGSGGGGSGGGGSGGGGSDIQLTQSPSSLSASVGDRVTITCKASEDIYNRLTWYQQKPGKAPKLLISGATSLETGVPSRFSGSGSGKDYTFTISSLQPEDFATYYCQQYWSNPYTFGQGTKLEIKGGGGSGGGGSGGGGSGGGGSHVQLVESGGGLVQPGGSLRLSCAASGFSLTDYGVHWVRQAPGKGLEWLGVIWSGGGTAYNTALISRFTISRDNSKNTLYLQMNSLRAEDTAVYYCARRGSYPYNYFDAWGQGTLVTVSSGGGGSGGGGSGGGGSGGGGSGGGGSGGGGSQAVVTQEPSLTVSPGGTVTLTCGSSTGAVTASNYANWVQQKPGQAPRGLIGGHNNRPPGVPARFSGSLLGGKAALTLLGAQPEDEAEYYCALWYSDHWVIGGGTKLTVLGTPLGDTTHTSGKPLDGEYFTLQIRGRERFEMFRELNEALELKDAQAGKEPGGSGGAP
modifications: Self-assembles into tetramers through the p53 SADA domain; labelled with 125I in Example 8.
notes: also called CD38-SADA construct without disulfide bonds; CD38-SADA
Kd [1]: 7.5 nM | koff [1]: 0.0011 s⁻¹ | kon [1]: 140000 M⁻¹ s⁻¹ | Kd [2]: 8.1 nM | koff [2]: 0.0011 s⁻¹ | kon [2]: 130000 M⁻¹ s⁻¹
